What was measured:
[1] = target: Hera_208–510 (C-terminal RecA domain, dimerization domain and RNA-binding domain of T. thermophilus Hera) (Thermus thermophilus); assay: SEC
[2] = target: Hera_208–419 (C-terminal RecA domain and dimerization domain of T. thermophilus Hera) (Thermus thermophilus); assay: crystal structure
[3] = target: Hera_208–419 (C-terminal RecA domain and dimerization domain of T. thermophilus Hera) (Thermus thermophilus); assay: SEC
[4] = target: Hera_208–419 (C-terminal RecA domain and dimerization domain of T. thermophilus Hera) (Thermus thermophilus); assay: SEC; remark: listed apart in the source

Row | Substance | stoichiometry N [1] | stoichiometry N [2] | stoichiometry N [3] | stoichiometry N [4]
1 | Hera_208–510 (C-terminal RecA domain, dimerization domain and RNA-binding domain of T. thermophilus Hera) (domain or fragment) | 2 |  |  | 
2 | Hera_208–419 (C-terminal RecA domain and dimerization domain of T. thermophilus Hera) (domain or fragment) |  | 2 | 2 | 2

From publication PMC2632915
